Assay results taken from the supplement of paper PMC9170038.

Test system: MS2 coat protein
Assay: apparent KD of MS2 coat protein; designed switch direction (-1 OFF switch, 1 ON switch): -1; higher = weaker reporter binding
Outline: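 Stalled E. coli RNA polymerase transcribed designed RNA switches on Illumina chips, which were then titrated with SNAP-549-labelled MS2 coat protein, doubling from 0.7 or 1.5 nM to 3 µM. Steps lasted from 0.8–1.5 h at the lowest concentration to 10–20 min at the highest. The apparent KD is each design's median over clusters of curve-fitted normalised fluorescence.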

[1] = Eterna round: R95, input ligand: FMN 200 uM
[2] = Eterna round: R95, input ligand: microRNA oligo, concentration not stated
[3] = Eterna round: R95, input ligand: none

In the case of “AAGAAACAUGAGGAUCACCCAUGUGAGGAUAUGAAAAAUAAAAUAAAAGAAAUAAUAAUCAGAAGGCACAAAGG [Mat - Mod of Hog D8] (puzzle: Exclusion 1)”, the “apparent KD of MS2 coat protein” value [1] was 44.5 nM, the “apparent KD of MS2 coat protein” value [2] was 36.1 nM and the “apparent KD of MS2 coat protein” value [3] was 30.5 nM.

For “AAGAAACAUGAGGAUCACCCAUGUGAGGAUAUGACAAAGAAAAGAAAAGAAAGAAGAUUCAGAAGGCACAAAGG [salish99-ex1_r3_036] (puzzle: Exclusion 1)”, the “apparent KD of MS2 coat protein” value [1] was 90.5 nM, the “apparent KD of MS2 coat protein” value [2] was 53.6 nM and the “apparent KD of MS2 coat protein” value [3] was 70.4 nM.

With “AAGAAACAUGAGGAUCACCCAUGUGAGGAUAUGAGAAAGAAAAGAAAAGAAAGAAGACUCAGAAGGCACAAAGG [salish99-ex1_r3_040] (puzzle: Exclusion 1)” the “apparent KD of MS2 coat protein” value [1] was 152 nM, the “apparent KD of MS2 coat protein” value [2] was 54.7 nM and the “apparent KD of MS2 coat protein” value [3] was 120 nM.

For “AAGAAACAUGAGGAUCACCCAUGUGAGGAUAUGAGGAAGAAAAGAAAAGAAAGAAGAAUCAGAAGGCACAAAGG [salish99-ex1_r3_049] (puzzle: Exclusion 1)”, the “apparent KD of MS2 coat protein” value [1] was 56.3 nM, the “apparent KD of MS2 coat protein” value [2] was 36.5 nM and the “apparent KD of MS2 coat protein” value [3] was 43.6 nM.

In the case of “AAGAAACAUGAGGAUCACCCAUGUGAGGAUAUGAUGAAGAAAAGAAAAGAAAGAAGAGUCAGAAGGCACAAAGG [salish99-ex1_r3_064] (puzzle: Exclusion 1)”, the “apparent KD of MS2 coat protein” value [1] was 96 nM, the “apparent KD of MS2 coat protein” value [2] was 55.9 nM and the “apparent KD of MS2 coat protein” value [3] was 69.2 nM.

With “AAGAAACAUGAGGAUCACCCAUGUGAGGAUAUGGCCCGCCCGGCGUGAGCAAAAUAAAUCAGAAGGCACAAAGG [salish99_ex1_r4_009] (Eterna round: R97, puzzle: Exclusion 1)” the “apparent KD of MS2 coat protein” value (input ligand: FMN 200 uM) was 41 nM and the “apparent KD of MS2 coat protein” value (input ligand: none) was 30.6 nM.

In the case of “AAGAAACAUGAGGAUCACCCAUGUGAGGAUAUGGCCCGCCCGGCGUGAGCUAAAUAAAUCAGAAGGCACAAAGG [salish99_ex1_r4_010] (Eterna round: R97, puzzle: Exclusion 1)”, the “apparent KD of MS2 coat protein” value (input ligand: FMN 200 uM) was 24.6 nM and the “apparent KD of MS2 coat protein” value (input ligand: none) was 42.2 nM.

For “AAGAACAGAGGAUAUCGCGGGCAGCACAUGAGGAUCACCCAUGUGAUGCUCCGCGGGCCGCGAGAAGGCUGAAAUG [Dizabe] (puzzle: Exclusion 5)”, the “apparent KD of MS2 coat protein” value [1] was 14.2 nM, the “apparent KD of MS2 coat protein” value [2] was 9.5 nM and the “apparent KD of MS2 coat protein” value [3] was 12.9 nM.

For “AAGAAGAAGUAAGGAUAUGAAGAUCUGGUGGUGACAUGAGGAUCACCCAUGUGAAAACGAUAAGAUCAGAAGGUAUAAGAAGAA [AK ExNG2-3.2] (Eterna round: R96, puzzle: Exclusion NG 2)”, the “apparent KD of MS2 coat protein” value (input ligand: FMN 200 uM) was 86.8 nM, the “apparent KD of MS2 coat protein” value (input ligand: microRNA oligo, concentration not stated) was 48.4 nM and the “apparent KD of MS2 coat protein” value (input ligand: none) was 85.8 nM.

For “AAGAAGCGAGGAUAUACAGGCGGCGACAUGAGGAUCACCCAUGUGGUGGCCCACGCCGUGGUAGAAGGCGUUAAAG [Ordiceinri] (Eterna round: R97, puzzle: Exclusion 5)”, the “apparent KD of MS2 coat protein” value (input ligand: FMN 200 uM) was 228 nM and the “apparent KD of MS2 coat protein” value (input ligand: none) was 245 nM.

In the case of “AAGACACAUGAGGAUCACCCAUGUGAGGAUAUGCGAUGCUAAGCGUAAGCUUAGUAUCGCAGAAGGCACAAAGG [Salishxclusion 4 - Jieux - Exclusion 1] (Eterna round: R97, puzzle: Exclusion 1)”, the “apparent KD of MS2 coat protein” value (input ligand: FMN 200 uM) was 76.9 nM and the “apparent KD of MS2 coat protein” value (input ligand: none) was 64 nM.

For “AAGACACAUGAGGAUCACCCAUGUGAGGAUAUUCGAUGCUGAGCGUAAGCUUAGUAUCGGAGAAGGCACAAAGG [Salishxclusion 7 - Jieux - Exclusion 1] (Eterna round: R97, puzzle: Exclusion 1)”, the “apparent KD of MS2 coat protein” value (input ligand: FMN 200 uM) was 119 nM and the “apparent KD of MS2 coat protein” value (input ligand: none) was 39.8 nM.
